In the supplement of paper PMC9170038:

Tested on: MS2 coat protein
Assay: apparent KD of MS2 coat protein; designed switch direction (-1 OFF switch, 1 ON switch): -1; higher = weaker reporter binding
How it was run: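 For each design, the apparent KD is the median over clusters of curves fitted to normalised cluster fluorescence. Clusters held RNA switches with common flanks, transcribed on Illumina chips by stalled E. coli RNA polymerase. These were titrated with SNAP-549-labelled MS2 coat protein, doubling from 0.7 or 1.5 nM to 3 µM, without input, with 200 uM small-molecule ligand, or with an oligonucleotide input.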

[1] = Eterna round: R95, input ligand: FMN 200 uM
[2] = Eterna round: R95, input ligand: microRNA oligo, concentration not stated
[3] = Eterna round: R95, input ligand: none
[4] = input ligand: microRNA oligo, concentration not stated

Sequence | apparent KD of MS2 coat protein (input ligand: FMN 200 uM) | apparent KD of MS2 coat protein (input ligand: none) | apparent KD of MS2 coat protein [1] | apparent KD of MS2 coat protein [2] | apparent KD of MS2 coat protein [3] | apparent KD of MS2 coat protein [4]
CCGUCCUCAGUUAGGAUAUCUUCCGGAGAACGAAAGGAGAAGGAACAUGAGGAUCACCCAUGUGGCCCGAUGGA [Eternabot (Original) Solution 16] (Eterna round: R97, puzzle: Brourd's mod of Exclusion 4) | 85.3 nM | 29.3 nM | – | – | – | –
GCAGAAUGAGUUAGGAUAUGAUGAUUUUUCGGAAAUCAGAAGGAACUUGAGGAUCACCCAAGUUAAGAUAGGGU [JR_BMEx4_Sub065] (Eterna round: R97, puzzle: Brourd's mod of Exclusion 4) | 229 nM | 85 nM | – | – | – | –
GCAGAAUACUAGGAUAUGUUGGUCGGAGGGCCAACAGAAGGAGUUACAUGAGGAUCACCCAUGUUCCCAAUGGG [Eternabot (Original) Solution 49] (Eterna round: R97, puzzle: Exclusion 6) | 66.1 nM | 52.7 nM | – | – | – | –
CACAGACAUGAGGAUCACCCAUGUUAGGAUAUGGAUAGCCUGCCAAGAAUAGGCGCCUCCAGAAGGAACUGGGA [Eternabot (Original) Solution 36] (Eterna round: R97, puzzle: Exclusion 1) | 141 nM | 61.1 nM | – | – | – | –
GAUUAUGCAAGCUUUUGGGACAUGAGGAUCACCCAUGUUCGUCUUAUUGAUCUAGGUACGCUGACGUACCUAGAUCU [JL-sv1-2.32 Brourd mod] (puzzle: Sensor v3, turn-off variant 1) | – | – | 18.1 nM | 62.2 nM | 17.6 nM | –
GAUUGACAUGAGGAUCACCCAUGUGAGGAUAUCGUCUGGUACGUGUUGGCUGGCAUCUCGAGAAGGCGCAUAGG [Exclusion 1 V56] (puzzle: Exclusion 1) | – | – | 103 nM | 59.4 nM | 76.4 nM | –
UACCCUAAGGUGAGGAUAUCUAGGCCUAGAGGUCAAGAGAAGGCACAUGAGGAUCACCCAUGUAGUUGAUACGA [BmEX4 B.25] (Eterna round: R97, puzzle: Brourd's mod of Exclusion 4) | 77.4 nM | 21.9 nM | – | – | – | –
UCGCCGCCCUUGGGCGGCGACAUGAGGAUCACCCAUGUCAAGCUUUUUGCUCGUUUUAUUGCCGGCCUUGGCCGGCU [Olib_2] (Eterna round: R97, puzzle: Sensor, turn-off variant 1) | 28.3 nM | 33.2 nM | – | – | – | –
CCACGACAUGAGGAUCACCCAUGUGAGGAUAUGGCCUGAAAAGCGUGAGCAGUUUGUAUCAGAAGGCGCGUGGG [salish99_ex1_r4_065] (Eterna round: R97, puzzle: Exclusion 1) | 79.1 nM | 53.8 nM | – | – | – | –
GUGUAGCUAGGAUAUACAUGAGGAUCACCCAUGUGAAUAAGAUAGAAUAAGAUAAAGUGUAGAAGGAGUAGUGU [Excluse me!!! 15 - Jieux - Exclusion 3] (puzzle: Exclusion 3) | – | – | 18.2 nM | 18.2 nM | 18.7 nM | –
ACCUUACUUGAGGAUCACCCAAGUCAGGAUAUACACCAGAAUAAAUCCCAGCCCUGGCGUAGAAGGGACGGGUG [Soesma] (Eterna round: R97, puzzle: Exclusion 1) | 23.9 nM | 21.8 nM | – | – | – | –
UGCUGACGAGGAUAUACAUGAGGAUCACCCAUGUUGGUCAAGCGACGAUAGUCGCAAUGUAGAAGGUGUCAGCA [E3/8-B1] (Eterna round: R97, puzzle: Exclusion 3) | 694 nM | 114 nM | – | – | – | –
AUCAGCUCGUGAGGAUAUGAACAUGAGGAUCACCCAUGUAAGAUCAAGCUGCUUCGGCAGCAAGUUCAGAAGGUACGAGCUGAU [ENG2/10-C3] (Eterna round: R96, puzzle: Exclusion NG 2) | 197 nM | 139 nM | – | – | – | 78.1 nM
CCCUCACAUGAGGAUCACCCAUGUCAGGAUAUUCGAACGGUGUGUUUUUGGCCAGUUGGAAGAAGGGACAUAAA [Riinesbe] (puzzle: Exclusion 1) | – | – | – | 36.2 nM | – | –
CGCCAAAGGAAGGAUAUGCUAGACGAAAGUCUAGCAGAAGGUCCUACAUGAGGAUCACCCAUGUGUCCUAGGCG [Mat - Exclusion 6 - Eli Mod - D10] (Eterna round: R97, puzzle: Exclusion 6) | 49.1 nM | 46.1 nM | – | – | – | –
AAUAAACAUGAGGAUCACCCAUGUGAGGAUAUACAAAUAAAUAAAUAAAUAAAUAAUAGUAGAAGGCACAAUAA [Excls1-II] (puzzle: Exclusion 1) | – | – | 35.9 nM | 35.3 nM | 44 nM | –
CUCGUGCAGCAAAGCUGUACGAGUACAUGAGGAUCACCCAUGUAGGAUAUGGUACGCAAAGCGUGCUAGAAGGAUAUGUGAAAG [Mat - Exclusion NG 3 - Mod of JL - D89] (Eterna round: R96, puzzle: Exclusion NG 3) | 44.2 nM | 49.9 nM | – | – | – | 31.4 nM
GACUGUCGAGAGGAUAUCUUUCCCAAGCGGGUCAGAGAAGGCUUGACAUGAGGAUCACCCAUGUUGAUUGCUAG [EX6 C.23] (Eterna round: R97, puzzle: Exclusion 6) | 389 nM | 140 nM | – | – | – | –
GGUACUAACACGAUAGUGUUAGUACUAUAAGCUUGUGUUACAUGAGGAUCACCCAUGUCCUCAUAAGCUCGUCUUGU [Mat - Sensor v3 - Turn-off var 2 - D89] (puzzle: Sensor v3, turn-off variant 2) | – | – | 49.8 nM | 52.9 nM | 44.8 nM | –
AUUAUAUAGACAGGAUAUAGAAUAUUAUUUUAACAUGAGGAUCACCCAUGUAACCUUAUGUGUAGCUAGAAGGGUCAUUUAUUA [Title] (Eterna round: R96, puzzle: Exclusion NG 2) | – | – | – | – | – | 77.4 nM
GGUGGACAUGAGGAUCACCCAUGUGAGGAUAUCGGCCGGUUCGUGGUGGCUGGCGUCUCGAGAAGGCGCAUAGU [Exclusion 1 V70] (puzzle: Exclusion 1) | – | – | – | 28.6 nM | – | –
CCGGAAGUACAGGAUAUAGGAGUCGAUAGACUCCUAGAAGGGUAUACAUGAGGAUCACCCAUGUGUCCUACCGG [Fiskers Ex 6 - 71] (puzzle: Exclusion 6) | – | – | – | 23.6 nM | – | –
UAAUAAAGUGUGAGGAUAUGCUGGUCGAUAGAUCAGCAGAAGGCACAUGAGGAUCACCCAUGUAAUAUAUUUUA [Mat - Exclusion 4 - JL Mod - D46] (puzzle: Brourd's mod of Exclusion 4) | – | – | – | 54.3 nM | – | –
AAGAAACAUGAGGAUCACCCAUGUGAGGAUAUAGAAAGAAAGAAAAGAAAAGAAAGAACUAGAAGGCACAAAGA [JR_Exclu1_Sub030] (puzzle: Exclusion 1) | – | – | 26.2 nM | 26.4 nM | 30.8 nM | –
GAAGUGCACAUGAGGAUCACCCAUGUGGGUGAGCCGUGCCUGAAGGAUAUGGCUCCCGAUGGAGACCAGAAGGUCAGUAAAUAA [Ededor] (Eterna round: R96, puzzle: Exclusion NG 3) | 367 nM | 1030 nM | – | – | – | 276 nM
GCAGGCGUCUUGGCUCGUCUUAUUUUGAGAGGAUUGAUAACAUGAGGAUCACCCAUGUUUGUGGGAGAGUUGCAGUG [JR_SV3TOV2_Sub016] (puzzle: Sensor v3, turn-off variant 2) | – | – | 108 nM | 283 nM | 133 nM | –
